Test: soluble on expression in E. coli; label from the status in PepcDB or PDB records

Row | Sequence | soluble on expression in E. coli
1 | MGTTLEVLRTGPLALVEDLGRPGLAHMGVTRSGAADRRSHTLANRLVANPGESATIEVTFGGFSARVCGGDVAIAVTGADTDPAVNGIPFGTNSIHHVHDGQVISLGAPHSGLRSYLAVRGGIDVTPVLGSRSYDVMSAIGPSPLRPGDVLPVGEHTDEFPELDQAPVAAIAEDVVELQVVPGPRDDWFVDPDILVRTNWLVTNRSDRVGMRLVGMPLEYRNPDRQLPSEGATRGAIQVPPNGFPVILGPDHPVTGGYPVIGVVTEEDIDKLGQVRPGQTVRLHWAYPRRPFETLESGKETAAAKFERQHMDSSTSAA | soluble
2 | MDLERLAQRLEGLRGYLDIPQKETRLKELERRLEDPSLWNDPEAARKVSQEAARLRRTVDTFRSLESDLQGLLELMEELPAEEREALKPELEEAAKKLDELYHQTLLNFPHAEKNAILTIQPGAGGTEACDWAEMLLRMYTRFAERQGFQVEVVDLTPGPEAGIDYAQILVKGENAYGLLSPEAGVHRLVRPSPFDASGRRHTSFAGVEVIPEVDEEVEVVLKPEELRIDVMRASGPGAQGVNTTDSAVRVVHLPTGITVTCQTTRSQIKNKELALKILKARLYELERKKREEELKALRGEVRPIEWGSQIRSYVLDKNYVKDHRTGLMRHDPENVLDGDLMDLIWAGLEWKAGRRQGTEEVEAE | soluble
3 | MTTLFISDLHLDPARPAITELFLDFLRTQVPGSDALYILGDLFEAWIGDDTPSTAADAVAEALHAVATTGVPVFFMPGNRDFLVGAAYAQRAGFRILPDPTVIDLYGQPTLLMHGDLLCTDDTAYQAFRAQTRDPAFQAQFLSQPLAARVAFAQQARAASHARQSELKQGDQAQFETVTDVAPAEVDATFVRYGLDRIIHGHTHRPAIHTVQAGGRTCTRVVLGDWYEQGSVLRVDADGLALEQLALLEHHHHHH | soluble
4 | MAGDSTDKAFQNFAYLLFLRNILTKSNFSETKNKPEAYNQFLFQKLKKILNLFQILQFILENIHCKPGDRIAILFAYSNDLDRNVVKNVWNTADFGFYSHFLVFANVRFDVRQEEEILFHYSYLNATSSVFSKLPDSSLGFGNNATGSDSLKTIDVGKFYSNNQVPVCGSIVLILSKRYPNELKILEVSRKVQEHHGIVHVISSVFPSGGTQSKALYKLTSRTNGICAFQEDSQFSEVSDFINISSKYYDGWHLLSHIVGSLPISGTPYPIYSVNPRVSGLGSLVLPSLSVPFSGRFYFVVTVQDHGPIDTFRSINLSWYNAKSRSSNHFLISNGQKYEINREEWFDLDPVIYNMTLNYSYLTFQDIQIRVYSSRPPEDWLPCCDSTN | not soluble
5 | FPDGTLGMDAAVQEDHDNGTQLDSLTLASINTDFAFSLYKELVLKNPDTNIVFSPLSISAALALVSLGAKGNTLEEILEGLKFNLTETSEADIHQGFGHLLQRLNQPKDQVQISTGSALFIEKRQQILTEFQEKAKTLYQAEAFTADFQQPRQAKKLINDYVRKQTQGMIKELVSDLDKRTLMVLVNYIYFKAKWKVPFDPLDTFKSEFYCGKRRPVIVPMMSMEDLTTPYFRDEELSCTVVELKYTGNASALFILPDQGRMQQVEASLQPETLRKWKNSLKPRMIDELHLPKFSISTDYSLEDVLSKLGIREVFSTQADLSAITGTKDLRVSQVVHKAVLDVAETGTEAAAATGVKFVPMSAKLYPLTVYFNRPFLIMIFDTETEIAPFIAKIANPK | soluble
6 | KRGRSVLVLDHAKKPGRKILISGGGRCNFTNYDVSASNYLCQNPHFVKSALSQYTNWDFISMVSKHGIEFEERDHGQLFCVDAFTAKDIVKMLLAECDMPNIQQRYQCDVHTIEKTEEGFRLHAGTEPVECESLVVATGGLSMPKLGATPFGYKVAEQ | not soluble
7 | SSPSSPADWAKKLTDAVLRQKAGETLTAADRDFSNADFRNITFSKILPPSFMERDGDIIKGFNFSNSKFTYSDISHLHFDECRFTYSTLSDVVCSNTKFSNSDMNEVFLQYSITTQQQPSFIDTTLKNTLIRHKANLSGVILNEPDNSSPPSVSGGGNFIRLGDIWLQMPLLWTENAVDGFLNHEHNNGKSILMTIDSLPDKYSQEKVQAMEDLVKSLRGGRLTEACIRPVESSLVSVLAHPPYTQSALISEWLGPVQERFFAHQCQTYNDVPLPAPDTYYQQRILPVLLDSFDRNSAAMTTHSGLFNQVILHCMTGVDCTDGTRQKAAALYEQYLAHPAVSPHIHNGLFGNYDGSPDWTTRAADNFLLLSSQDSDTAMMLSTDTLLTMLNPTPDTAWDNFYLLRAGENVSTAQISPVELFRHDFPVFLAAFNQQATQRRFGELIDIILSTEEHGELNQQFLAATNQKHSTVKLIDDASVSRLATIFDPLLPEGKLSPAHYQHILSAYHLTDATPQKQAETLFCLSTAFARYSSSAIFGTEHDSPPALRGYAEALMQKAWELSPAIFPSSEQFTEWSDRFHGLHGAFTCTSVVADSMQRHARKYFPSVLSSILPLAWA | soluble
8 | AHHHHHHGSRIVLAYSGGLDTSVILKLMQEKLGAEVITVTVDVGQKDDFEKIEEKAYKFGAVKHYYIDAKEEFAENYVCKAIKANALYENAYPLSTALARPLIVEKLVEVAKKEGAGIIAHGCTGKGNDQVRFNLGIKALMPEAEILQPVAEWNLTRDWEMEYAKKHGIPVSDKIYSIDENIWGRSIEGGVLEDPSIEPPEEVFEWTVSIEKAPDKPEYVTIGFENGVPVSLNGEKMKLLELILKLNEIAGKHGVGRIDHIEDRSVGIKSREVYEAPAAVTLIKAHQDLEKLTLTKWVIEFKSIVDSKWSWLVYNGLWYEPLRLALEGFIDEAEKAVNGEVTVKLWKGNAIVVGRKSDNALYDVKMATYEKFSTFDQKLAKGFIELFGMQSVLAYNMLHGVHSTSNISEIKEAIKTLE | soluble
9 | QTGGSFYEPFNNYNTGLWQKADGYSNGNMFNCTWRANNVSMTSLGEMRLSLTSPSYNKFDCGENRSVQTYGYGLYEVNMKPAKNVGIVSSFFTYTGPTDGTPWDEIDIEFLGKDTTKVQFNYYTNGVGNHEKIVNLGFDAANSYHTYAFDWQPNSIKWYVDGQLKHTATTQIPQTPGKIMMNLWNGAGVDEWLGSYNGVTPLYAHYNWVRYTKR | soluble
10 | MMEHDRARTRAWVLHPELKSDLDRRDPVPALEEAVALAAALPDLDVVGSGIVRLPKPHPGHLFGSGKVEELATLFHDNEVELVLIDGPLSPVQQRNLEKAWKVKILDRTGLILEIFSDRARTREGVLQVEMAALSYQRTRLVRAWTHLERQRGGLGFVGGPGETQIEADRRAIDEQLVRLKRQLDKVVKTRELHRKARAKVPYPIVALVGYTNAGKSTLFNRLTGAEVMAKDMLFATLDPTMRRVVLPDGPEVILSDTVGFISDLPTELVAAFRATLEEVLAADLIVHVRDIHHAATEEQARDVETILASLGVDEGRPKFEVWNKVDLLDPDKRAALRERTARDPSLFAVSAVTGEGLESLLTAIAEALAETRSEAVLTLGFADGKRRAWLFAQDVVQAEEQSDDGFRLTVLWTPRQAARYAALLEHHHHHH | soluble
11 | MMSIFRKLMPREDRFFDMFSKHSETVIKAAAALDQLLSGIDVEKNCDLIVALENQADDITREVLLAVRRSFITPFDRGDIKDLIQSMDDAIDMMHKTVKTIRLFEQSEFDPLMKEMGHEIVRAAGLIAEAIPLLNKVGANAQRLSAIAEEVTRVEGRSDDLHDQGLKDLFRRHGANGNAMAYMIGSEIYGELEKVVDRFEDVANEISGIVIENVLEHHHHHH | soluble
12 | MAHHHHHHMLYLKEIELGNYYICNLDDYPREYCVVDYDPNKVIKFLCPIVHNEGEEMKTYDSSYCFRYKGIKDRLIISNNEEQIYTTLPGIILENQILYDRYNLGIYLMPLKLEEDMSIVCVCDTKKEYKGITPYIKINIKKSNNLLGADSADQHIKGCDFGNNQGEHQFLTNSQSYEENLVCEIHANPGDIVGINCINYNEGDLQNYEVKLEPSNCFSTVSFSLYTLSFVKMNINNIFPDARYYPESSAFPKDPNFKKFSTTSYLWIPAHVPEDFLFFCSCRYAQGEGVAIYHVGSSAAAVEAV | not soluble
13 | MKNYKKYYIIPAPPEEVYLALTVPTTLLLWTGEEAVMSTEPESEFSLWGGSIEGRNIEFIEGKKIVQQWYFGDQEEPSIVTIILHPDKQDSTSAELRHTNIPDEAYEDMVEGWNGAYFGALQEFYEDEELEHHHHHH | soluble
14 | MIPMFKKKPLIGMVHLKPLPGSYHYNDNFDDIVDFAIKEAKKLEEAGFDAVMIENFGDAPFKKEADKITIASMAVIAKAIKEEVSLPLGINILRNDAIGAYSIAYVVKADFIRVNVLSGVAFTDQGIIEGKAYELAKLKKLLPSKIKVFADVHVKHAYHFIDFESSLLDTVERGLADAVIISGKRTGKEVDIEKLKLAKELVDVPVIVGSGTNYNNLRILWSYADGFIIGTWIKKDGKANNEIDIDRAKKIVNLANKLKMCLEHHHHHH | soluble
15 | SLKINQEEDTVSSEKNKLCDNNNNNNMVHTRHIYNVCELNKCLRENKLIPYNNIYKMKHLYLNILDTFDENILKHVNKAHLFIDSVIQKKKNILIHCMAGISRCSSIILSYVSKKNKKGIEYNFNLLKSKYPFAHPNENFYRQLLLYEKMNYTLDGCTDYHNIYK | soluble
16 | VVKLAFPRELRLLTPSQFTFVFQQPQRAGTPQITILGRLNSLGHPRIGLTVAKKNVRRAHERNRIKRLTRESFRLRQHELPAMDFVVVAKKGVADLDNRALSEALEKLWRRHCRLARGS | soluble
17 | DYKDIVLTQSHKFMSTSVGDRVSITCKASQDVGTAVAWYQQKPGQSPKLLIYWASTRHTGVPDRFTGSGSGTDFTLTISNVQSEDLADYFCQQYSSYPLTFGAGTKLELKRGGGGSGGGGSGGGGSGGGGSQVQLQESGGELVRPGASVKLSCKASGYTFTSYWINWVKQRPGQGLEWIGNIYPSDSYTNYNQKFKDKATLTVDKSSSTAYMQLSSLTSEDSAVYFCARWGYWGQGTLVTVSAASGAHHHHH | soluble
18 | MGSDKIHHHHHHVPVSQLPSQPTDNNSSAATDVTPVVALKELVARLHREQNKIQDLLSSLGFALRSFNNLNQFLELIPLMATRVTDADGSALFLYKPNGQVRLEQLHWQDSGQRKNIRKALEIASSQITLLPNAAPLANATGILDDQMHRYLGPDVQIFGTAILVKHTERGWLYVLSRDPEYSWTETRQKLVRLVADQTAVAIENDELAVELRKKERLDQELEIGAEIQRRLLPRQCPTIPGAVLAARCKPANRVGGDYYDFIATNQNKIRSKTKGDTETGRWGLVIGDVMGKGVPAGLIMTMMRGMLRGEVLHGNSPAKILQNLNRVMYADLENSHRFVTLFYSEYNPHSRILSYSNAAHNPPLWWHAATKTVSRLDTLGMLIGLDANSQYEDAQVQLEPGDTIIYYTDGLTDAAAAGGDRFDEDNFVAGFNTACKYCNGPEEIVDYLFDQVQQFIGDDKQNTDDMTLVVLQIL | not soluble
19 | MGSDKIHHHHHHMAARNDDKYRGDTENKGFWTIDFGRSPVIGTAIHDGHFIRSDIASLMALSPEQRLREEDPFTGEMIARLTNRLVVHHSRFEIDLNRAADQAIYLKPEQSWGLEVWSEEPSQDAVRHSLDFHADYYAMLESVLSSVERRHGPFVVLDVHSYNHRRQGAGEPPTAQAEAPDINIGTFSMDRSRWNDVVSAVGEHFASATIGGRRLDVRENVAFQGKGEQTRFIHERFAENGCAIAIEFKKFFMDEWTGEPDRRVVSDIRETIAALQPVLEECLRSR | not soluble
20 | MSLEKKFVIWGRNPIIEALRAGRNLEKIYVAHDSHPPKELLELAKKRGVKVQRISRKKVEELAGTKKTQGVVALLSPVNYVSPHELFKECIEKKSFFIVIDHITDPQNVGNLLRTCEVLGGVGALISKDRTSPINETVVKASSGAVFHLKISKVSSLSRELKNFQKMGGWVFAVEKGGKDIREVDIPLPVALVLGSEDKGVSKSVLDISDQIVTIPMKGKVTSLNVGSAGAIAMWETAKKILEGHHHHHH | soluble
